Test results as given in paper PMC11006869.

Columns and labels:
[1] = target: ErNaR, NDQ rhodopsin (light-driven sodium pump) from Erythrobacter sp. HL-111 (Erythrobacter sp. HL-111); assay: cryo-EM structure; single particle; 100 mM sodium acetate pH 4.3, 200 mM NaCl, 0.05% DDM; C5 symmetry; 2.50 Å
[2] = target: ErNaR, NDQ rhodopsin (light-driven sodium pump) from Erythrobacter sp. HL-111 (Erythrobacter sp. HL-111); assay: cryo-EM structure; single particle; 20 mM Tris pH 8.0, 200 mM NaCl, 0.05% DDM; C5 symmetry; 2.63 Å
[3] = target: ErNaR, NDQ rhodopsin (light-driven sodium pump) from Erythrobacter sp. HL-111 (Erythrobacter sp. HL-111); assay: SEC; detergent-solubilized ErNaR, pH 2.3
[4] = target: ErNaR, NDQ rhodopsin (light-driven sodium pump) from Erythrobacter sp. HL-111 (Erythrobacter sp. HL-111); assay: SEC; detergent-solubilized ErNaR, pH 8.0

- stoichiometry N [1]: 5
- stoichiometry N [2]: 5
- stoichiometry N [3]: 5
- stoichiometry N [4]: 5
Substance: ErNaR, NDQ rhodopsin (light-driven sodium pump) from Erythrobacter sp. HL-111 (natural protein)
